± gives the uncertainty stated by the source.
Assay: self-splicing fitness, log relative to wild type (ln ratio); higher = more splicing; Tetrahymena group I intron in knt gene, E. coli kanamycin selection, DiMSum; sequences stand for … in CUCUCU…GGAGGGAAAAGUUAUCAGGCAUGCACCUGGUAGCUAGUCUUUAAACCAAUAGAUUGCAUCGGUUUAAAAGGCAAGACCGUCAAAUUGCGGGAAAGGGGUCAACAGCCGUUCAGUACCAAGUCUCAGGGGAAACUUUGAGAUGGCCUUGCAAAGGGUAUGGUAAUAAGCUGACGGACAUGGUCCUAACCACGCAGCCAAGUCCUAAGUCAACAGAUCUUCUGUUGAUAUGGAUGCAGUUCACAGACUAAAUGUCGGUCGGGGAAGAUGUAUUCUUCUCAUAAGAUAUAGUCGGACCUCUCCUUAAUGGGAGCUAGCGGAUGAAGUGAUGCAACACUGGAGCCGCUGGGAACUAAUUUGUAUGCGAAAGUAUAUUGAUUAGUUUUGGAGUACUCGUGGUCG
How it was run: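 Six replicate transformations of E. coli BL21(DE3) with a pET-22b(+) library were grown overnight at 37°C or 30°C. The library randomised all eight P1ex-region intron nucleotides, the intron lying in the knt kanamycin-resistance gene, and plates were LB agar with or without 25 μg/mL kanamycin plus 100 μg/mL carbenicillin, 50 μM IPTG and 0.2% rhamnose. Pooled colonies were amplicon-sequenced on an Illumina HiSeq 2500, and fitness is the DiMSum error-weighted combination of wild-type-normalised replicate fold changes, kanamycin versus none.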

Sequence | self-splicing fitness (ln) (30 °C) | self-splicing fitness (ln) (37 °C)
UAGUAGCAAUAUUACGGGUA | -1.99 ± 0.12 | -0.398 ± 0.097
AGGUAGCAAUAUUACGCUGA | -2.032 ± 0.019 | -1.14 ± 0.034
UGUCAGCAAUAUUACGCACG | -1.06 ± 0.12 | -0.829 ± 0.13
UUCGAGCAAUAUUACGUAUU | – | -2.79 ± 0.43
GCAGAGCAAUAUUACGCGGU | -4.68 ± 0.29 | -3.16 ± 0.37
GAAAAGCAAUAUUACGACUU | -0.183 ± 0.063 | 0.52 ± 0.096
UACCAGCAAUAUUACGAGCG | -0.124 ± 0.06 | 0.206 ± 0.075
GACCAGCAAUAUUACGAACA | -0.472 ± 0.091 | 0.313 ± 0.081
AGGUAGCAAUAUUACGGUUC | -2.769 ± 0.022 | -1.51 ± 0.036
AGAGAGCAAUAUUACGCCAA | -2.71 ± 0.2 | -3.06 ± 0.43
AUUCAGCAAUAUUACGACAG | -2.39 ± 0.16 | -0.849 ± 0.17
AUUGAGCAAUAUUACGUAUC | -1.48 ± 0.36 | –
AUCCAGCAAUAUUACGACCC | -1.24 ± 0.071 | -0.202 ± 0.089
ACGAAGCAAUAUUACGUGAU | -2.04 ± 0.054 | -0.989 ± 0.072
UCAUAGCAAUAUUACGGCAC | -2.93 ± 0.5 | -2.15 ± 0.37
AAUGAGCAAUAUUACGGAGA | -2.59 ± 0.4 | -2.51 ± 0.34
GAGUAGCAAUAUUACGGUAU | -2.6 ± 0.13 | -2.22 ± 0.2
CGCUAGCAAUAUUACGGUUA | -2.22 ± 0.23 | -1.82 ± 0.2
CAGGAGCAAUAUUACGCUUG | -3.59 ± 0.21 | -2.48 ± 0.3
UAGCAGCAAUAUUACGUAUG | -1.13 ± 0.061 | -0.563 ± 0.084

Sequence | self-splicing fitness (ln) (30 °C) | self-splicing fitness (ln) (37 °C)
CGGGAGCAAUAUUACGCUAU | -3.6 ± 0.31 | -2.64 ± 0.48
AGGAAGCAAUAUUACGCGAA | -1.83 ± 0.12 | -1.38 ± 0.14
UAAGAGCAAUAUUACGAAAA | – | -2.26 ± 0.38
UGGCAGCAAUAUUACGGGAG | -3.13 ± 0.21 | -1.15 ± 0.14
UCCUAGCAAUAUUACGCGCA | -1.31 ± 0.1 | -0.0853 ± 0.097
UUGAAGCAAUAUUACGGCGG | 0.15 ± 0.11 | 0.55 ± 0.13
GUCGAGCAAUAUUACGACGA | -3.05 ± 0.35 | -1.28 ± 0.21
AGAUAGCAAUAUUACGUCAA | -1.15 ± 0.09 | -1.03 ± 0.1
GAUGAGCAAUAUUACGUUAU | -3.98 ± 0.23 | -1.77 ± 0.16
CGGUAGCAAUAUUACGUCAG | -0.671 ± 0.15 | -1.09 ± 0.17
AUGAAGCAAUAUUACGAAGU | -1.21 ± 0.1 | -0.533 ± 0.12
ACACAGCAAUAUUACGAUAG | -2.96 ± 0.074 | -1.62 ± 0.069
CUAAAGCAAUAUUACGACAA | -2.42 ± 0.15 | -1.2 ± 0.19
GCUCAGCAAUAUUACGGGGU | -3.51 ± 0.15 | -1.39 ± 0.14
AAGCAGCAAUAUUACGCCAU | -2.13 ± 0.19 | -1.69 ± 0.28
CCAUAGCAAUAUUACGGUUA | -3.57 ± 0.29 | -2.73 ± 0.21
CCAGAGCAAUAUUACGUCCA | -2.05 ± 0.33 | -1.44 ± 0.35
UAGGAGCAAUAUUACGCCGA | -2.76 ± 0.21 | -0.577 ± 0.27
UCGCAGCAAUAUUACGUCGU | -1.95 ± 0.081 | -0.965 ± 0.096

From the supplement of paper PMC7877785
